# Target: T1, 14-3-3ε full length (14-3-3ε FL), recombinant, P62258
# T1 chain: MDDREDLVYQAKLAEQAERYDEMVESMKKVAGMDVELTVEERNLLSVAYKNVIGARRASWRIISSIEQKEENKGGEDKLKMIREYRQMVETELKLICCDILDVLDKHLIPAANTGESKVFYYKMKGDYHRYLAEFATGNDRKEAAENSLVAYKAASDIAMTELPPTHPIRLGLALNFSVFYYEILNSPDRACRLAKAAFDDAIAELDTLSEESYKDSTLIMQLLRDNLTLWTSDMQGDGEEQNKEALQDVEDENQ
# Assay: AUC + other: dynamic light scattering; sedimentation velocity, 20 °C, 45,000 r.p.m., 37 μM, 5 mM sodium phosphate pH 6.3; DLS at 0.1 mg/mL, 25 °C, same buffer
# Details: remark: other sources report otherwise
binder,measurement,value
"14-3-3ε full length (14-3-3ε FL), recombinant, P62258 1-255 (natural protein) MDDREDLVYQAKLAEQAERYDEMVESMKKVAGMDVELTVEERNLLSVAYKNVIGARRASWRIISSIEQKEENKGGEDKLKMIREYRQMVETELKLICCDILDVLDKHLIPAANTGESKVFYYKMKGDYHRYLAEFATGNDRKEAAENSLVAYKAASDIAMTELPPTHPIRLGLALNFSVFYYEILNSPDRACRLAKAAFDDAIAELDTLSEESYKDSTLIMQLLRDNLTLWTSDMQGDGEEQNKEALQDVEDENQ",stoichiometry N,2
